From paper PMC3241732 (The Journal of Cell Biology, 2011)

T1: His6-Cdc12 (Saccharomyces cerevisiae, UniProt P32468 1-407)
T1 sequence: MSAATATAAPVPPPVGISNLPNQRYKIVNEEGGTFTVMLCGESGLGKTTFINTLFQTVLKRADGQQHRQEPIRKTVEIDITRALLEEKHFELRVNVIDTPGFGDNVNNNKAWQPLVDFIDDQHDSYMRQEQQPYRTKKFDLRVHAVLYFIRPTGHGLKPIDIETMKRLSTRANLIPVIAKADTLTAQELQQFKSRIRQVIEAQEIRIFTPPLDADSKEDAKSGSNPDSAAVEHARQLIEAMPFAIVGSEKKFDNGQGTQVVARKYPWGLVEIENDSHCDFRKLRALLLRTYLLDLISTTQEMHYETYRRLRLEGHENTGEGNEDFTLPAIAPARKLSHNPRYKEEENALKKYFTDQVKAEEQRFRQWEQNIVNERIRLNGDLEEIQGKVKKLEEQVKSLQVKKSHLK

B1: Shs1 (natural protein)
chain: MSTASTPPINLFRRKKEHKRGITYTMLLCGPAGTGKTAFANNLLETKIFPHKYQYGKSNASISSNPEVKVIAPTKVVSFNSKNGIPSYVSEFDPMRANLEPGITITSTSLELGGNKDQGKPEMNEDDTVFFNLIMTHGIGENLDDSLCSEEVMSYLEQQFDIVLAEETRIKRNPRFEDTRVHVALYFIEPTGHGLREVDVELMKSISKYTNVLPIITRADSFTKEELTQFRKNIMFDVERYNVPIYKFEVDPEDDDLESMEENQALASLQPFAIITSDTRDSEGRYVREYPWGIISIDDDKISDLKVLKNVLFGSHLQEFKDTTQNLLYENYRSEKLSSVANAEEIGPNSTKRQSNAPSLSNFASLISTGQFNSSQTLANNLRADTPRNQVSGNFKENEYEDNGEHDSAENEQEMSPVRQLGREIKQENENLIRSIKTESSPKFLNSPDLPERTKLRNISETVPYVLRHERILARQQKLEELEAQSAKELQKRIQELERKAHELKLREKLINQNKLNGSSSSINSLQQSTRSQIKKNDTYTDLASIASGRD
B2: Shs1(Δ349–551) (domain or fragment)
chain: MSTASTPPINLFRRKKEHKRGITYTMLLCGPAGTGKTAFANNLLETKIFPHKYQYGKSNASISSNPEVKVIAPTKVVSFNSKNGIPSYVSEFDPMRANLEPGITITSTSLELGGNKDQGKPEMNEDDTVFFNLIMTHGIGENLDDSLCSEEVMSYLEQQFDIVLAEETRIKRNPRFEDTRVHVALYFIEPTGHGLREVDVELMKSISKYTNVLPIITRADSFTKEELTQFRKNIMFDVERYNVPIYKFEVDPEDDDLESMEENQALASLQPFAIITSDTRDSEGRYVREYPWGIISIDDDKISDLKVLKNVLFGSHLQEFKDTTQNLLYENYRSEKLSSVANAEEIGP
B3: Cdc11 (natural protein)
chain: MSGIIDASSALRKRKHLKRGITFTVMIVGQSGSGRSTFINTLCGQQVVDTSTTILLPTDTSTEIDLQLREETVELEDDEGVKIQLNIIDTPGFGDSLDNSPSFEIISDYIRHQYDEILLEESRVRRNPRFKDGRVHCCLYLINPTGHGLKEIDVEFIRQLGSLVNIIPVISKSDSLTRDELKLNKKLIMEDIDRWNLPIYNFPFDEDEISDEDYETNMYLRTLLPFAIIGSNEVYEMGGDVGTIRGRKYPWGILDVEDSSISDFVILRNALLISHLHDLKNYTHEILYERYRTEALSGESVAAESIRPNLTKLNGSSSSSTTTRRNTNPFKQSNNINNDVLNPASDMHGQSTGENNETYMTREEQIRLEEERLKAFEERVQQELLLKRQELLQREKELREIEARLEKEAKIKQEE

Target: T1, His6-Cdc12
Assay: negative-stain EM, single-particle class averages

| Binder | percent of particles that are heptamers [%] | percent of particles that are hexamers [%] | percent of particles that are octamers [%] |
| --- | --- | --- | --- |
| B1 | 15 | 38 | 47 |
| B2 |  |  | 72 |
| B3 | 10 | 4 | 86 |
